Reference: the DeepSol protein solubility set

Assay: soluble on expression in E. coli; label from the status in PepcDB or PDB records

| Sequence | soluble on expression in E. coli |
| --- | --- |
| MDGDFRTSFVREPAGLRPYPALVLNADYRPLSYYPLSLWPWQEAIKAAFLDRVSIVAEYDQVVRSQRAALRIPSVVVLKEFVSPQKRVAFTRFNLFLRDEFRCQYCGAKGDLTFDHVVPRARGGVTSWQNVVAACSPCNLHKGSKTLKQAGMRLARIPREPTPAEMQRHGQRFPPNHLHDSWLDYLYWDAELEALEHHHHHH | not soluble |
| MDGELRALLNAVLERLDVQGVYIEQMRMDIVKLQGSVKQLEDKVDRIQSDVEAMKKDMDAMKKDMDAMKKDMLGVKKDVAALKEGQVRQEKIMERLAIRSIEQEAEIDELRKEISA | not soluble |
| MDGGADLYKPGEPGAMKKPKSVRQERILTELNQAPSLRVAELARRLDVSTETIRRDLDEMTEQGLLNRTYGGAVRSLSTEPSVTERHTLFVGERERIAKAAVQILKGAQVLMIGSGSTTVHTARRIAVEMKNITVLTHSFGVATVLAINPTIKVVMLPGDYHATEGATVGAHAVSFLNSFYADFTILGASGLGPDGPSDALLECGAVYSAMVSRAARTIVVADHSKHDRLFPARYAPWRDIAHVVTDKAPGEDLTESLDSSGVKLTVCLEHHHHHH | soluble |
| MDGHAPTFTSIQDIQGEGASSPFIDGYPYITTEEHFVTGVVSAVTSGLTKGFYLQAIENDNNDKTSEGLFIHTNAADTELKPGDVVCVKGKVQEYYNNTQLSSDATSYVKTGTSDIPLVTPLVIKEGETLRDALERHEGMQVTLNSASDLFVTRNFSYDYDSKRNNMMLSHQAPLFKPTQLHAADSAEAVALAKQNAENRVFLESDAKAPNGKIPYYPEFGQDLDQDGSSEQHIRLGSRVEGLQGVVNYSYNEYRLIATNDVNNTNFVAAGDGFDVERKAAPAIAESDLRVASFNVLNYFTSVALEHHHHHH | not soluble |
| MDGIRVYIETFGCTFNQADSEIMAGVLREEGAVLTGIDDADVIIINTCYVKHPTEHKVINRIKKIQETYPEKGLVVAGCMVEIDPSKLEAISGDASWLGPHQLRRAPQAVRAASNGLVERITGFTSDVKVKVPRVRSNPLIHIIPICEGCNGSCSYCCTRFARGRIQSYPSDLIISEAREAVASGCREIQLTAQDTAAYGVDTGEKLSDIIKGISGIPGNFRIRVGMMHPASVLRDLDGLVEAFKSEKVYSFLHLPVQSGSDSVLADMERGHTVDEFRMIVERFRSEIPDISIATDIIVGYPTEEREDFMDTCSLLEEVKPSFIHLSKYRHRPRARSSSLDEIDFRELRRRSRALEELKMRITEEENRRLVGSFQEILVVERGRKGGFIGRTGSYIPVVTETGEPGSFRRVRIRDATGTYLLADLEHHHHHH | soluble |
| MDGPHGTPVLDRIAKLREELPPPAVPGKGQKTDGRWFDGNGAVRDSVSGKDVDSEEAWRLLRESGIPLPRPPVVAHAEMKVAAAMRRLNVRHAVLVITNVPCDERWSCENLLPAVLPVGCSLSVHGPGYQRTFHGRTPKW | not soluble |
| MDGQADGMFIDRAEDARKQEITEQYLNFLDNQADTFHYRQKIVKMMNDGESRLVMNLDEIREILPERAEGLLTQSVLEMNCLQSALQMAINRSDVQAVVKTGFHVGFEGTFGERHVNPRTLKSSYLGNLVCCEGIVTKCSTVRQKLLTSVHYCPATNKVLEKKFADFTMLDTAVTNNNYPTEDENKNPLETEFGHSVYKDHQTFTIQELPESAPAGQLPRAVDCVADLDLADRVKPGDRVRIIGVFRVLPNKQNGVSSGSFRSIIIINHIQMLSKEVIPNFEPQDVKDVRKISKSRNPFELLARSLAPSICGHEETKKALLCLLLGGMEKILNNGSRLRGDINVLLIGDPSVAKSQLLRYVLRMAPRAITTTGRGSSGVGLTAAVTTDPDSGERRLEAGAMVLADRGVVCIDEFDKMSDIDRTAIHEVMEQGRVTISKAGIHAKLNARCSVLAAANPVYGRYNPFKSPMENIGMQDSLLSRFDLIFVLLDEHDADKDANVAEHVLKLHTYRTQGEADGTVLPMGGGVETISTINMETKKASSSIYEENTQWAGIQDTKILTMDFMRKYIHLARSVQPKLTDEATEYISEVYADIRSFDITKTDQERTMPVTARQLETLIRLSTAIAKARFSKKVEREDTEKAYNLLHFACFKEKPKARQEYEKKKRAPRIDGDDDEDQSDNEDMATSEEPQSSSVPTAATPRRGVRRRAEDDDSQDSMMDTTIGESQPTAKKARTGPAAIGVDRYKELRKYVRKAFDDIGSTDDMVELQIITDSVQTQAGSHKFTEDELKAGYEQLENDNAAMIAEDKITLI | not soluble |
| MDIGTQLKFLRNRRGWTMQEVADRIGKNDSTYSGYETNKRKPNAEVLVQLADIFDTTTDFILGRTENPNGLNFNVKDFLDQGRLHSDGVEITDEQAEIANVLLRQLLQRKQQ | not soluble |
| MDIISLRKSPQYLEEAIAYFQRKWADENSRMVYDNCFRTCLESESPLPQWYLLINGEGEIIGCAGLATNDFNSRMDLYPWLVALFIEEQYRGHNYGNLLIKAVEEDTRRLGFGNLYLCTTHTGYYEHFNFVYIGDCYHPWGEHTR | not soluble |
| MDILQTRYFELSNPTTGEHKFYELTLHEDGTLISRYGRIGANGQNKTQQFNSVEAMLKAADKTTAEKLNKGYQVANAGETAAQETRHQRILRNVREFYELISNGDSKLAQRCSVEFKAFIEDEDNKEEYEDQDNELINNGIREAADWELVFFVDWKDTESMLDVLDTLCSNLNIDIVFDWGCDVPEDELKVGQIMLLAHEQLQQQGFALWHWDTGHDAYLGWIARMAYQTQIASCVQALDLDAAYPNPEKLTLEHHHHHH | soluble |
| MDKALTNHVIILSFDCLSALDFPILQKLPHFQSLIKKGTVVEKVEPIYPSVTYPSHSTIVTGNYPNKHGVVSNTLLQPGRESPDWHWYRKSIKGTTLYDEARKANLTTAALLWPVTGRANIDYNLPEIFPNRPWQNQVLVSLFSGSPLYQLDLNRRFGHIRNGLSQPELDDFVLASAVHTIQTKKPNIMFVHFTDLDTQRHYHGFESNETIAAIQRHDERLGKIIQALKESDLYEESTIIALGDHSALSENKSIQLNVLFHQRGLISLNKKRKLVDWKAYCQSCDGSAYVYVKDKNDTDTIREVQLLLEELLQNKQNGIEFILHDEAAKDCGADGNCLFMLEAREGYYFTENYTGDFIKEITEKDVTLSKKYTFGTHGYSPTKPNYETIFIAAGKGIKSGVTVPYMRLIDEGPTIARLLGLHLGETDGAIVEDLLQLLEHHHHHH | soluble |
| MDKELIKKNIKLMDATIEKMIHVMSSIHKLQLSVKELEDSNELTVSYVKRECTKLEERVKELRPSISRCVFMYREYVEEFETKLRDRIVTEKFFRIKRFYGKEVLAFKEFQEKYQNYIPKDIIDIKKQVRQKLEEVGYEIDGAFEGDFTSWVGVYARPKDKPTYLDPANAEEVVLQEKYSVNGFKQDFSEWFEFEIKDNVVYGILEHHHHHH | soluble |
| MDKEQRNIVVFNASKRELFTSSSGYKSLQKKLRAQWKIQSIKEELTLEKLQGVKLWITAGPREKFTAAELEVLKQYLDSGGALLVMIGEGGELKYDTNINFLLEEFGIMVNNDAVIRNVYYKYFHPKEALVSNGVLNREISRAAGKVVTGVIDEENTGNNSQALTFVYPYGATLNVMKPAVAILSTGSVCFPLNRPVLAFHHSKNAGKLAVLGSCHMFSDQYLDKEENSRIMDVVFQWLTTDSIHLNQIDAEDPEITDYMMLPDTGSLSERLRVCLQEGDENPRDFTSLFDMSLLKLHTNTLPSVLDAYKQLNVKHEALQLITPQFETPLPPLQPAVFQPAFRDLPPPMLDLFDLDETFSSEKVRLAQLSNKCTDDDLEFYVRKCGDILGVTGNLDKDKRDAKHILEHVFFQVVEFKKLNEEHDVDTAEARFSMY | soluble |
| MDKIPDIMAKIKTMAPAIRSIDTRTVKVAPKVADAELQSAEYRQWRNAVYRRAGYRCEAIDNGRRCTKAAPAHRLFADHIVERRDGGALLDAANGQCLCGSHHTRKTVAARAARLSSRSRGGGSNLLEHHHHHH | soluble |
| MDKRISIAIDGPAAAGKSTVAKVVAKKLSYVYIDTGAMYRTITYAALEQKVDIENEEQLMEVVKNVKIEFQQGENTQLVFLNGQDVSEVIRTPEVTNRVSIVAKHRLVREEMVRRQQELAEKGGVVMDGRDIGTHVLPDAEVKIFMLASVEERAERRHLENMNKGFDSNLEQLKEEIAQRDKLDSEREVSPLKKADDALELDTTSLSIEEVVQKIMGIVLGVFAK | not soluble |
| MDKSTKDFMDLKKIGGDDERERRFSDASDTSMDCHMESIGSRRRDSLIEQFRDFLNRSMDFSVKIDDPFEKEMY | not soluble |
| MDLAKLGLKEVMPTKINLEGLVGDHAFSMEGVGEGNILEGTQEVKISVTKGAPLPFAFDIVSVAFGYGNRAYTGYPEEISDYFLQSFPEGFTYERNIRYQDGGTAIVKSDISLEDGKFIVNVDFKAKDLRRMGPVMQQDIVGMQPSYESMYTNVTSVIGECIIAFKLQTGKHFTYHMRTVYKSKKPVETMPLYHFIQHRLVKTNVDTASGYVVQHETAIAAHSTIKKIEGSLPVDHHHHHH | soluble |
| MDLKITNGFYDPSHLSYEVVERKGLGHPDTLADGIAEQIEIDYSLYCLDKFGVIPHHNFDKIIIRGGHSVQDFGGSDFIEPIKIIFLGRASKKCFNSSIPLFKIQKKAATKYLNRILPNLDVENYVEFETLTSDFTTKTNWFSPEAIEDLPEYLDVPKANDTATMISYWPLTISEELALMIEGYFYKLDKNELPTPRFTKMGGDIKVMVVRNDLEYSIRINFPLISKFFNNDIESQLYVDKHVEKIKKYIEQKYKNISFSIDYHYYLTTTGSCIDFGEEGAVGRGNKTHGIISSFRPNTMEAPAGKNCTYFVGKVWGFLSDTIAKEIYEAFNTPCQIIMQLNIGSKLYRPTHLFIQTEESVDQERVLEIVNRHLNNGKQNTNLILSTQHFIPKTNVYDG | not soluble |
| MDLKVVVSLSSRLYTDEIAKMQQRIGCILPLASTHGTQNVQGLGLGQVYSLETVPDYVSMYNYLSDCTLAVLDEVSVDSLILTKIVPGQTYAIKNKYQPFFQWHGTGSLSVMPPVFGREHATVKLESNDVDIVFPMVLPTPIAEEVLQKILLFNVYSRVVMQAPGNADMLDVHMHLGSVSYLGHHYELALPEVPGPLGLALLDNLSLYFCIMVTLLPRASMRLVRGLIRHEHHDLLNLFQEMVPDEIARIDLDDLSVADDLSRMRVMMTYLQSLASLFNLGPRLATAAYSQETLTATCWLR | not soluble |
| MDLNFKELAEAKKDAILKDLEELIAIDSSEDLENATEEYPVGKGPVDAMTKFLSFAKRDGFDTENFANYAGRVNFGAGDKRLGIIGHMDVVPAGEGWTRDPFKMEIDEEGRIYGRGSADDKGPSLTAYYGMLLLKEAGFKPKKKIDFVLGTNEETNWVGIDYYLKHEPTPDIVFSPDAEYPIINGEQGIFTLEFSFKNDDTKGDYVLDKFKAGIATNVTPQVTRATISGPDLEAVKLAYESFLADKELDGSFEINDESADIVLIGQGAHASAPQVGKNSATFLALFLDQYAFAGRDKNFLHFLAEVEHEDFYGKKLGIFHHDDLMGDLASSPSMFDYEHAGKASLLNNVRYPQGTDPDTMIKQVLDKFSGILDVTYNGFEEPHYVPGSDPMVQTLLKVYEKQTGKPGHEVVIGGGTYGRLFERGVAFGAQPENGPMVMHAANEFMMLDDLILSIAIYAEAIYELTKDEEL | soluble |
